*1 amine or outer side, *2 acyl side, *3 side chain or, on linkers, in order; H or OH if unused. Side-chain parts run from the residue outwards. The star is where a group is joined. C18 diacid = O=C(O)CCCCCCCCCCCCCCCCC(=O)*; γGlu = O=C(O)[C@H](CCC(=O)[*:2])N[*:1]; Isovaleryl = CC(C)CC(=O)*; Ahx = NCCCCCC(=O)O
Biological target: T1, human NPY2 receptor (human, UniProt P49146 1-381)
T1 construct: whole, on cells; also called hNPY2-R; hNPY2R
T1 sequence (looked up): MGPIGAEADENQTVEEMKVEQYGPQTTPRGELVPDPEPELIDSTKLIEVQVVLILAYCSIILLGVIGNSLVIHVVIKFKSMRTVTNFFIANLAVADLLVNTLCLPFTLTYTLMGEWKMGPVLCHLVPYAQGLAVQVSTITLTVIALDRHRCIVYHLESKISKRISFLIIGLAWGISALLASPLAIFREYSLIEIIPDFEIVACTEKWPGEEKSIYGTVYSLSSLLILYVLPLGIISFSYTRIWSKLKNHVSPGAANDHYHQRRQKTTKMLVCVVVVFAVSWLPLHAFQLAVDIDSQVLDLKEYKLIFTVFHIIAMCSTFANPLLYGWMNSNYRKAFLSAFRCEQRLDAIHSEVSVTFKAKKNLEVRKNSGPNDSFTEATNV
Test: RLB: displacement of 125I-PYY(1-36) from hNPY2R membranes

B1: Compound 44 (peptide)
peptide: Isovaleryl-APEK([Ahx-γGlu-C18 diacid])PEEDATPEELQRYYVGLRHYYNWLTRQRY-NH2
SMILES: CC(C)CC(=O)N[C@@H](C)C(=O)N1CCC[C@H]1C(=O)N[C@@H](CCC(=O)O)C(=O)N[C@@H](CCCCNC(=O)CCCCCNC(=O)CC[C@H](NC(=O)CCCCCCCCCCCCCCCCC(=O)O)C(=O)O)C(=O)N1CCC[C@H]1C(=O)N[C@@H](CCC(=O)O)C(=O)N[C@@H](CCC(=O)O)C(=O)N[C@@H](CC(=O)O)C(=O)N[C@@H](C)C(=O)N[C@H](C(=O)N1CCC[C@H]1C(=O)N[C@@H](CCC(=O)O)C(=O)N[C@@H](CCC(=O)O)C(=O)N[C@@H](CC(C)C)C(=O)N[C@@H](CCC(N)=O)C(=O)N[C@@H](CCCNC(=N)N)C(=O)N[C@@H](Cc1ccc(O)cc1)C(=O)N[C@@H](Cc1ccc(O)cc1)C(=O)N[C@H](C(=O)NCC(=O)N[C@@H](CC(C)C)C(=O)N[C@@H](CCCNC(=N)N)C(=O)N[C@@H](Cc1c[nH]cn1)C(=O)N[C@@H](Cc1ccc(O)cc1)C(=O)N[C@@H](Cc1ccc(O)cc1)C(=O)N[C@@H](CC(N)=O)C(=O)N[C@@H](Cc1c[nH]c2ccccc12)C(=O)N[C@@H](CC(C)C)C(=O)N[C@H](C(=O)N[C@@H](CCCNC(=N)N)C(=O)N[C@@H](CCC(N)=O)C(=O)N[C@@H](CCCNC(=N)N)C(=O)N[C@@H](Cc1ccc(O)cc1)C(N)=O)[C@@H](C)O)C(C)C)[C@@H](C)O
With B1 as the binder, how does the Ki read?
Its Ki is 5.86 nM.

B2: Compound 45 (peptide)
peptide: Isovaleryl-APEK([Ahx-γGlu-C18 diacid])PEEIATPEELQRYYVSLRHYYNWLTRQRY-NH2
SMILES: CC[C@H](C)[C@H](NC(=O)[C@H](CCC(=O)O)NC(=O)[C@H](CCC(=O)O)NC(=O)[C@@H]1CCCN1C(=O)[C@H](CCCCNC(=O)CCCCCNC(=O)CC[C@H](NC(=O)CCCCCCCCCCCCCCCCC(=O)O)C(=O)O)NC(=O)[C@H](CCC(=O)O)NC(=O)[C@@H]1CCCN1C(=O)[C@H](C)NC(=O)CC(C)C)C(=O)N[C@@H](C)C(=O)N[C@H](C(=O)N1CCC[C@H]1C(=O)N[C@@H](CCC(=O)O)C(=O)N[C@@H](CCC(=O)O)C(=O)N[C@@H](CC(C)C)C(=O)N[C@@H](CCC(N)=O)C(=O)N[C@@H](CCCNC(=N)N)C(=O)N[C@@H](Cc1ccc(O)cc1)C(=O)N[C@@H](Cc1ccc(O)cc1)C(=O)N[C@H](C(=O)N[C@@H](CO)C(=O)N[C@@H](CC(C)C)C(=O)N[C@@H](CCCNC(=N)N)C(=O)N[C@@H](Cc1c[nH]cn1)C(=O)N[C@@H](Cc1ccc(O)cc1)C(=O)N[C@@H](Cc1ccc(O)cc1)C(=O)N[C@@H](CC(N)=O)C(=O)N[C@@H](Cc1c[nH]c2ccccc12)C(=O)N[C@@H](CC(C)C)C(=O)N[C@H](C(=O)N[C@@H](CCCNC(=N)N)C(=O)N[C@@H](CCC(N)=O)C(=O)N[C@@H](CCCNC(=N)N)C(=O)N[C@@H](Cc1ccc(O)cc1)C(N)=O)[C@@H](C)O)C(C)C)[C@@H](C)O
How did the Ki turn out when B2 was run?
Its Ki is 6.17 nM.

B3: Compound 48 (peptide)
peptide: Isovaleryl-APAK([Ahx-γGlu-C18 diacid])PEEAATPEELQRYYISLRHYYNWLTRQRY-NH2
SMILES: CC[C@H](C)[C@H](NC(=O)[C@H](Cc1ccc(O)cc1)NC(=O)[C@H](Cc1ccc(O)cc1)NC(=O)[C@H](CCCNC(=N)N)NC(=O)[C@H](CCC(N)=O)NC(=O)[C@H](CC(C)C)NC(=O)[C@H](CCC(=O)O)NC(=O)[C@H](CCC(=O)O)NC(=O)[C@@H]1CCCN1C(=O)[C@@H](NC(=O)[C@H](C)NC(=O)[C@H](C)NC(=O)[C@H](CCC(=O)O)NC(=O)[C@H](CCC(=O)O)NC(=O)[C@@H]1CCCN1C(=O)[C@H](CCCCNC(=O)CCCCCNC(=O)CC[C@H](NC(=O)CCCCCCCCCCCCCCCCC(=O)O)C(=O)O)NC(=O)[C@H](C)NC(=O)[C@@H]1CCCN1C(=O)[C@H](C)NC(=O)CC(C)C)[C@@H](C)O)C(=O)N[C@@H](CO)C(=O)N[C@@H](CC(C)C)C(=O)N[C@@H](CCCNC(=N)N)C(=O)N[C@@H](Cc1c[nH]cn1)C(=O)N[C@@H](Cc1ccc(O)cc1)C(=O)N[C@@H](Cc1ccc(O)cc1)C(=O)N[C@@H](CC(N)=O)C(=O)N[C@@H](Cc1c[nH]c2ccccc12)C(=O)N[C@@H](CC(C)C)C(=O)N[C@H](C(=O)N[C@@H](CCCNC(=N)N)C(=O)N[C@@H](CCC(N)=O)C(=O)N[C@@H](CCCNC(=N)N)C(=O)N[C@@H](Cc1ccc(O)cc1)C(N)=O)[C@@H](C)O
Which Ki does the source give for B3 here?
The Ki was 1.54 nM.

B4: Compound 49 (peptide)
peptide: Isovaleryl-APEK([Ahx-γGlu-C18 diacid])PEEDATPEELQRYYVLLRHYYNWLTRQRY-NH2
SMILES: CC(C)CC(=O)N[C@@H](C)C(=O)N1CCC[C@H]1C(=O)N[C@@H](CCC(=O)O)C(=O)N[C@@H](CCCCNC(=O)CCCCCNC(=O)CC[C@H](NC(=O)CCCCCCCCCCCCCCCCC(=O)O)C(=O)O)C(=O)N1CCC[C@H]1C(=O)N[C@@H](CCC(=O)O)C(=O)N[C@@H](CCC(=O)O)C(=O)N[C@@H](CC(=O)O)C(=O)N[C@@H](C)C(=O)N[C@H](C(=O)N1CCC[C@H]1C(=O)N[C@@H](CCC(=O)O)C(=O)N[C@@H](CCC(=O)O)C(=O)N[C@@H](CC(C)C)C(=O)N[C@@H](CCC(N)=O)C(=O)N[C@@H](CCCNC(=N)N)C(=O)N[C@@H](Cc1ccc(O)cc1)C(=O)N[C@@H](Cc1ccc(O)cc1)C(=O)N[C@H](C(=O)N[C@@H](CC(C)C)C(=O)N[C@@H](CC(C)C)C(=O)N[C@@H](CCCNC(=N)N)C(=O)N[C@@H](Cc1c[nH]cn1)C(=O)N[C@@H](Cc1ccc(O)cc1)C(=O)N[C@@H](Cc1ccc(O)cc1)C(=O)N[C@@H](CC(N)=O)C(=O)N[C@@H](Cc1c[nH]c2ccccc12)C(=O)N[C@@H](CC(C)C)C(=O)N[C@H](C(=O)N[C@@H](CCCNC(=N)N)C(=O)N[C@@H](CCC(N)=O)C(=O)N[C@@H](CCCNC(=N)N)C(=O)N[C@@H](Cc1ccc(O)cc1)C(N)=O)[C@@H](C)O)C(C)C)[C@@H](C)O
Which Ki does the source give for B4 here?
Its Ki is 11.6 nM.

B5: Compound 51 (peptide)
peptide: Isovaleryl-APEK([Ahx-γGlu-C18 diacid])PEEDATPEELQRYYVQLRHYYNWLTRQRY-NH2
SMILES: CC(C)CC(=O)N[C@@H](C)C(=O)N1CCC[C@H]1C(=O)N[C@@H](CCC(=O)O)C(=O)N[C@@H](CCCCNC(=O)CCCCCNC(=O)CC[C@H](NC(=O)CCCCCCCCCCCCCCCCC(=O)O)C(=O)O)C(=O)N1CCC[C@H]1C(=O)N[C@@H](CCC(=O)O)C(=O)N[C@@H](CCC(=O)O)C(=O)N[C@@H](CC(=O)O)C(=O)N[C@@H](C)C(=O)N[C@H](C(=O)N1CCC[C@H]1C(=O)N[C@@H](CCC(=O)O)C(=O)N[C@@H](CCC(=O)O)C(=O)N[C@@H](CC(C)C)C(=O)N[C@@H](CCC(N)=O)C(=O)N[C@@H](CCCNC(=N)N)C(=O)N[C@@H](Cc1ccc(O)cc1)C(=O)N[C@@H](Cc1ccc(O)cc1)C(=O)N[C@H](C(=O)N[C@@H](CCC(N)=O)C(=O)N[C@@H](CC(C)C)C(=O)N[C@@H](CCCNC(=N)N)C(=O)N[C@@H](Cc1c[nH]cn1)C(=O)N[C@@H](Cc1ccc(O)cc1)C(=O)N[C@@H](Cc1ccc(O)cc1)C(=O)N[C@@H](CC(N)=O)C(=O)N[C@@H](Cc1c[nH]c2ccccc12)C(=O)N[C@@H](CC(C)C)C(=O)N[C@H](C(=O)N[C@@H](CCCNC(=N)N)C(=O)N[C@@H](CCC(N)=O)C(=O)N[C@@H](CCCNC(=N)N)C(=O)N[C@@H](Cc1ccc(O)cc1)C(N)=O)[C@@H](C)O)C(C)C)[C@@H](C)O
Which Ki does the source give for B5 here?
The Ki was 2.59 nM.

B6: Compound 54 (peptide)
peptide: Isovaleryl-APEK([Ahx-γGlu-C18 diacid])PEEDATPEEAQRYYVSLRHYYNWLTRQRY-NH2
SMILES: CC(C)CC(=O)N[C@@H](C)C(=O)N1CCC[C@H]1C(=O)N[C@@H](CCC(=O)O)C(=O)N[C@@H](CCCCNC(=O)CCCCCNC(=O)CC[C@H](NC(=O)CCCCCCCCCCCCCCCCC(=O)O)C(=O)O)C(=O)N1CCC[C@H]1C(=O)N[C@@H](CCC(=O)O)C(=O)N[C@@H](CCC(=O)O)C(=O)N[C@@H](CC(=O)O)C(=O)N[C@@H](C)C(=O)N[C@H](C(=O)N1CCC[C@H]1C(=O)N[C@@H](CCC(=O)O)C(=O)N[C@@H](CCC(=O)O)C(=O)N[C@@H](C)C(=O)N[C@@H](CCC(N)=O)C(=O)N[C@@H](CCCNC(=N)N)C(=O)N[C@@H](Cc1ccc(O)cc1)C(=O)N[C@@H](Cc1ccc(O)cc1)C(=O)N[C@H](C(=O)N[C@@H](CO)C(=O)N[C@@H](CC(C)C)C(=O)N[C@@H](CCCNC(=N)N)C(=O)N[C@@H](Cc1c[nH]cn1)C(=O)N[C@@H](Cc1ccc(O)cc1)C(=O)N[C@@H](Cc1ccc(O)cc1)C(=O)N[C@@H](CC(N)=O)C(=O)N[C@@H](Cc1c[nH]c2ccccc12)C(=O)N[C@@H](CC(C)C)C(=O)N[C@H](C(=O)N[C@@H](CCCNC(=N)N)C(=O)N[C@@H](CCC(N)=O)C(=O)N[C@@H](CCCNC(=N)N)C(=O)N[C@@H](Cc1ccc(O)cc1)C(N)=O)[C@@H](C)O)C(C)C)[C@@H](C)O
With B6 as the binder, how does the Ki read?
The Ki was 8.97 nM.

— US20260015399A1 (Boehringer Ingelheim, published 2026)
